For three molecules, IC50 results are on record in patent CN115057938A (dated 2022).

The IC50 is the midpoint of a concentration-inhibition curve.

In this assay the target is 野生株SARS-COV-2 RBD蛋白(Ag27) (SARS-COV-2 野生株, UniProt P0DTC2 319-541).

B1: R1463 (VHH)
VHH: QVQLVESGGGVVQPGGSLRLSCTCSRCTFNWDGMGWFRQAPGKGLEFVATISWSGQEPAYADSVKGRFTISRDNSKNTLYLQMTSLRAEDTAVYYCAAAQYTGASYSILRDQVGYDYWGQGTLVTVSS
notes: also called RX017 VHH-His标签; 对照
B1 displayed an IC50 of 0.0359 nM.

B2: R1475 (VHH, not shown: small tags and cut ends)
VHH 1: QVQLVESGGGVVQPGGSLRLSCTCSRCTFNWDGMGWFRQAPGKGLEFVATISWSGQEPAYADSVKGRFTISRDNSKNTLYLQMTSLRAEDTAVYYCAAAQYTGASYSILRDQVGYDYWGQGTLVTVSS
VHH 2: QVQLVESGGGVVQPGGSLRLSCTCSRCTFNWDGMGWFRQAPGKGLEFVATISWSGQEPAYADSVKGRFTISRDNSKNTLYLQMTSLRAEDTAVYYCAAAQYTGASYSILRDQVGYDYWGQGTLVTVSS
notes: also called 人源化多价结合蛋白 R1475; VHH-Linker-VHH-His标签
On to B2, for which the IC50 is 0.0206 nM.

B3: R1464 (VHH, not shown: small tags and cut ends)
chain (part 1 of 3): HHHHHHQVQLVESGGGVVQPGGSLRLSCTCSRCTFNWDGMGWFRQAPGKGLEFVATISWSGQEPAYADSVKGRFTISRDNSKNTLYLQMTSLRAEDTAVYYCAAAQYTGASYSILRDQVGYDYWGQGTLVTVSS
chain (part 2 of 3): QVQLVESGGGVVQPGGSLRLSCTCSRCTFNWDGMGWFRQAPGKGLEFVATISWSGQEPAYADSVKGRFTISRDNSKNTLYLQMTSLRAEDTAVYYCAAAQYTGASYSILRDQVGYDYWGQGTLVTVSS
chain (part 3 of 3): QVQLVESGGGVVQPGGSLRLSCTCSRCTFNWDGMGWFRQAPGKGLEFVATISWSGQEPAYADSVKGRFTISRDNSKNTLYLQMTSLRAEDTAVYYCAAAQYTGASYSILRDQVGYDYWGQGTLVTVSS
notes: also called 人源化多价结合蛋白 R1464; His标签-VHH-Linker-VHH-Linker-VHH
B3 came in with an IC50 of 0.0272 nM.
